Measured values as given in article PMC10872465 (Molecular cell, 2023).

T1: MBP-HDAC8 (UniProt Q9BY41 8-374)
T1 sequence (looked up): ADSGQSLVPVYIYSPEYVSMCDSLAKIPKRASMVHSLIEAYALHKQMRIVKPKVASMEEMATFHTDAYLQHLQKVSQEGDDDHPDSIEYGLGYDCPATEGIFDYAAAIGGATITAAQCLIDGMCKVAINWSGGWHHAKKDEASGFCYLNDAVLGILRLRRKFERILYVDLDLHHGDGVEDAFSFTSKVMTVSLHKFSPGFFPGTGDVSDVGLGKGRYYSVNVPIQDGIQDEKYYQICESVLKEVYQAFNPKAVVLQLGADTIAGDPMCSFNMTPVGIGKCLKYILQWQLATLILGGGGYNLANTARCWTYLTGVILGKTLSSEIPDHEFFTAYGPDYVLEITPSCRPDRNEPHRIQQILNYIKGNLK

B1: hRpn13 (1–150) (domain or fragment, human, UniProt Q16186 1-150, looked up)
chain: MTTSGALFPSLVPGSRGASNKYLVEFRAGKMSLKGTTVTPDKRKGLVYIQQTDDSLIHFCWKDRTSGNVEDDLIIFPDDCEFKRVPQCPSGRVYVLKFKAGSKRLFFWMQEPKTDQDEEHCRKVNEYLNNPPMPGALGASGSSGHELSAL
B2: hRpn2 (940–953) (peptide, UniProt Q99460 940-953, looked up)
chain: QEPEPPEPFEYIDD

Tests used:
Assay in all cases: NMR titration
PADI4 (1–663) = PADI4 (1–663) (UniProt Q9UM07 1-663)
PADI4 (1–663), sequence (Q9UM07 whole entry): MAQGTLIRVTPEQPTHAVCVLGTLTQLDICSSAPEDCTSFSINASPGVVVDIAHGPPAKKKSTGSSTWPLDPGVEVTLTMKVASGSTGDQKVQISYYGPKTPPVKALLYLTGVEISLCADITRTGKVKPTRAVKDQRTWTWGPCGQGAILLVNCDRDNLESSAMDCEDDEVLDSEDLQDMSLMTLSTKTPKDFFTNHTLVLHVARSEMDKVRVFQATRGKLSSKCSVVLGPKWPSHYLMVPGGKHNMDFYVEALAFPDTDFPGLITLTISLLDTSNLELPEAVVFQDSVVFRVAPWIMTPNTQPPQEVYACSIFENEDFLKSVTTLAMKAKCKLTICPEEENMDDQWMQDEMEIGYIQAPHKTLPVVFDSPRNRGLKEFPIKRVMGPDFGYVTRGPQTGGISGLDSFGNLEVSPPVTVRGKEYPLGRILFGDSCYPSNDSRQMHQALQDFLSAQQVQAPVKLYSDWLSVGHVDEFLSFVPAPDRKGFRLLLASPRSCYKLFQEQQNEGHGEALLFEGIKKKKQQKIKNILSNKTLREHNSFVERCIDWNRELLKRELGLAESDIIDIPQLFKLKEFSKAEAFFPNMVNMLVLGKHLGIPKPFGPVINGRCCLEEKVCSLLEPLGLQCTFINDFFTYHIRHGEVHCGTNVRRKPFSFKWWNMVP

MBP-HDAC8 = molecular target: T1, MBP-HDAC8
hRpn13 (1–150) = molecular target: B1

Binder | binding result (PADI4 (1–663)) | binding result (MBP-HDAC8) | binding result (hRpn13 (1–150))
B1 | binds | binds | –
B2 | – | – | binds
